B1: AlpC (Corynebacterium glutamicum ATCC 13032) (protein)
chain: MTSAVNVQKKTTQKVLKPINTKNYSATDAVQTGQHGSALGSNIGVYTYTAGLDIGNGYVKGIIEATGDTTGTSVDVIDMPSAATRMSRPTEVPEPDDTAVAVTGADFFNHIDTNFNSPMVKGNYRYLCGTRSLSARGSLEEFDLVGNRSKAEQELSKVLVMAVLAAKAVKDFVAAHGRIPQVAVEGDPGVLRVHTYLALALPINEYVGHRHGYKAQFMGDGAANPAVHVVTVNNFETPATVQLIFERVEVIAEGASAQYAITAGGEVLMNGMLADVRSKGLALEGVTAGDVLQARHTIGVDVGEGTVNFPVFTDGRFNHDASRAYDKGYGTVLESAIQAMDDAGLAHNFNSRKQLADYLQRPPSALKRNFYTRVEQHVDQEAVFFVQDVAAEFARVLSDVGALTEVAFVYGGGSGPLRDRLHEALLIKAAEMGSEDTFPVLYLDSAYSRKLNREGLMIAARSIAAKARK
notes: N-terminal His10 tag kept (His10-AlpC), expressed in E. coli BL21 (DE3) pLysS, HisTrap and Superdex 200 purified; encoded by cryptic prophage CGP3; polymerizes with nucleotide and Mg2+

Legend:
[1] = biological target: His10-AlpC (Cg1890), actin-like protein of the prophage CGP3 of Corynebacterium glutamicum ATCC 13032 (Corynebacterium glutamicum ATCC 13032 (prophage CGP3)); assay: co-sedimentation; AlpC and AlpA (or control protein) equimolar, 5 uM each, 20 ul, EMSA buffer (20 mM Tris/HCl pH 7.5, 50 mM KCl, 10 mM MgCl2, 5% glycerol, 0.5 mM EDTA, 0.005% Triton X-100), 30°C 30 min, with or without 1 mM ATP and/or 100 ng DNA (500 bp upstream of alpA); 16 100 x g 1 h; SDS-PAGE, Coomassie, ImageQuant TL
purified protein [2] = substrate: Nc1nc2c(ncn2[C@@H]2O[C@H](COP(=O)(O)OP(=O)(O)OP(=O)(O)O)[C@@H](O)[C@H]2O)c(=O)[nH]1; assay: purified protein; type: biochemical, Corynebacterium glutamicum; settings: 1 uM protein, equimolar MgSO4, 50 mM Tris/HCl pH 7.5, 150 mM NaCl, 10% glycerol, 30 °C
purified protein [3] = substrate: Nc1ncnc2c1ncn2[C@@H]1O[C@H](COP(=O)(O)OP(=O)(O)OP(=O)(O)O)[C@@H](O)[C@H]1O; assay: purified protein; type: biochemical, Corynebacterium glutamicum; settings: 1 uM protein, equimolar MgSO4, 50 mM Tris/HCl pH 7.5, 150 mM NaCl, 10% glycerol, 30 °C

| Molecule | percent of AlpA co-sedimented with AlpC (with ATP and DNA) [1] | percent of AlpA co-sedimented with AlpC (with ATP) [1] | Km (purified protein [2]) | Km (purified protein [3]) |
| --- | --- | --- | --- | --- |
| His10-AlpA (Cg1891), adaptor protein of the prophage CGP3 of Corynebacterium glutamicum (natural protein) | 38% | 30% | – | – |
| B1 | – | – | 0.43 mM | 0.2 mM |

Reference: article PMC4446434, “A prophage-encoded actin-like protein required for efficient viral DNA replication in bacteria” (Nucleic Acids Research, 2015)
